# Laboratory results as given in paper PMC10090083, “Structural basis of impaired disaggregase function in the oxidation-sensitive SKD3 mutant causing 3-methylglutaconic aciduria” (Nature Communications, 2023).
# B1: Ank domain of human SKD3 isoform-1 (ANK_(iso1), residues 132-351) (domain or fragment, UniProt Q9H078 132-351, looked up)
# chain: SNKDAALLEAARANNMQEVSRLLSEGADVNAKHRLGWTALMVAAINRNNSVVQVLLAAGADPNLGDDFSSVYKTAKEQGIHSLEDGGQDGASRHITNQWTSALEFRRWLGLPAGVLITREDDFNNRLNNRASFKGCTALHYAVLADDYRTVKELLDGGANPLQRNEMGHTPLDYAREGEVMKLLRTSEAKYQEKQRKREAEERRRFPLEQRLKEHIIGQE
# notes: human SKD3 (CLPB) isoform-1, Ank domain construct, residues 132-351; TEV-cleavable tag; also called isolated Ank domain of SKD3; source: E. coli BL21-CodonPlus (DE3)-RIL, purified (IMAC, anion exchange, SEC); not shown: His6-SUMO, N-terminal, cleaved
# Target: the molecule itself
# Assay: not stated; oligomeric state of the isolated Ank domains in solution (Supplementary Fig. 1a, b); method not given
protein,measurement,value
B1,stoichiometry N,2
